Values quoted from earlier work in patent US7235367B2, “Method using crystal structure of estrogen receptor-β complex” (Genetics Institute, LLC., priority 2000, dated 2007).

Target: ER-β (Homo sapiens, UniProt Q92731)
Details: co-activator, ER-β versus ER-α

Chain of ER-β (Q92731 whole entry): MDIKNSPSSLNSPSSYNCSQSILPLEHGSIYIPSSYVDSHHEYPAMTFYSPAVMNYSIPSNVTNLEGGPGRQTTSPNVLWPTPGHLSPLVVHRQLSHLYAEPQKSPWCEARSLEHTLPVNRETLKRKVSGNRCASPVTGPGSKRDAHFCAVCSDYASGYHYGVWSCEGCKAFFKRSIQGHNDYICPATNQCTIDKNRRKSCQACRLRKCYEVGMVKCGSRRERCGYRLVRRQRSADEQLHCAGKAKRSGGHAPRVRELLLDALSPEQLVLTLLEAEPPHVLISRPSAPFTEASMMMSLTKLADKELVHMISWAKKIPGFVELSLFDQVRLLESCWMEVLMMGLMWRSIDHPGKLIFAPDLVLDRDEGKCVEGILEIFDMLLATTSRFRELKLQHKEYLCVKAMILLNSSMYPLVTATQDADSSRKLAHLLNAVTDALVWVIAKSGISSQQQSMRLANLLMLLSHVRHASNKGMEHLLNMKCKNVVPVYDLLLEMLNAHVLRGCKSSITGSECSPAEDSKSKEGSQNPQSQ

- preferential activation of ER subtype: preferentially activates ER-β
Substance: SRC-1: co-activator protein that preferentially activates ER-β
